Test: soluble on expression in E. coli; label from the status in PepcDB or PDB records

| Sequence | soluble on expression in E. coli |
| --- | --- |
| MNTHYVGPVLYTPKENVSEKLLKLFDADQPIIFCYTARFYDNVGESGKAIFDNMIKIADKIDASIIISTGNKKDELLALDIASKELKSGKVSIVDYVPLDMAYEKSDLVIHHGGHGSCLAQFYYGVPSVIIPTHTEREYNARMCEKLHVGKMLPRRELNSANLKNCINDVLNDITYKKSVRDWKEKVSGLEHHHHHH | not soluble |
| MNTISILSTTDLPAAWQIEQRAHAFPWSEKTFFGNQGERYLNLKLTADDRMAAFAITQVVLDEATLFNIAVDPDFQRRGLGRMLLEHLIDELETRGVVTLWLEVRASNAAAIALYESLGFNEATIRRNYYPTAQGHEDAIIMALPISMKLHHHHHHHHHH | soluble |
| MNTKPKTIATSSTLELPKLHFQYDNTTTTFTEEEKLIDLKPTSEANYVKFWYNIVRNTYSQTHTNGSPVKPYLVANIERTIDTRLGEVFLHKKERSEHWASIAWFFNIDVKGKLVEKIIIRMSGIEELILNSGTTQIGENLNLISKSTRIPIEQNLTIDNPQLEVFYIMALWTISLDARAFKADLEDGINSESFSVEVFWKSKQDHNQTTISI | not soluble |
| MNTSLFKQERQKYIPKLPNILKKDFNNISLVYGENTEAIQDRQALKEFFKNTYGLPIISFTEGESSLSFSKALNIGIILSGGPAPGGHNVISGVFDAIKKFNPNSKLFGFKGGPLGLLENDKIELTESLINSYRNTGGFDIVSSGRTKIETEEHYNKALFVAKENNLNAIIIIGGDDSNTNAAILAEYFKKNGENIQVIGVPKTIDADLRNDHIEISFGFDSATKIYSELIGNLCRDAMSTKKYWHFVKLMGRSASHVALECALKTHPNICIVSEEVLAKKKTLSEIIDEMVSVILKRSLNGDNFGVVIVPEGLIEFIPEVKSLMLELCDIFDKNEGEFKGLNIEKMKEIFVAKLSDYMKGVYLSLPLFIQFELIKSILERDPHGNFNVSRVPTEKLFIEMIQSRLNDMKKRGEYKGSFTPVDHFFGYEGRSAFPSNFDSDYCYSLGYNAVVLILNGLTGYMSCIKNLNLKPTDWIAGGVPLTMLMNMEERYGEKKPVIKKALVDLEGRPFKEFVKNRDKWALNNLYLYPGPVQYFGSSEIVDEITETLKLELFK | soluble |
| MNTTPLVIGAYAALPATRADQETFYDRLHADLEATGLELPFRDSIHDDPAWLASQLAGRFTDSIITAIPGTMMRVWDGGTFGLASPDDDGRNAAIAFTRSIIDSARALDDAAGHRVIAGIHIHSAPSVTANRDQFLRSLTELLEGMDNDDPRLIIEHCDRYNEAVTGEKRFLSIEQEIAIAKETGIGITVNWGRSAMEAYDTQLPARHIQALVAEGVFEGVMFSGAGDKENTFGAAWADLHLPHHVDEPASLMDDDRIAECLSAAGGAQKYHGAKIQAPADVDVATRVTMLGHITRHLR | soluble |
| MNVFAFSISGGGSERSYKETEKTSAMTTTHSTKLQPSQAILFKMREDAPPLNLTEEMPPPFPTKANYLIHPVRLEHHHHHH | not soluble |
| MNVGIKGFGAYAPEKIIDNAYFEQFLDTSDEWISKMTGIKERHWADDDQDTSDLAYEASVKAIADAGIQPEDIDMIIVATATGDMPFPTVANMLQERLGTGKVASMDQLAACSGFMYSMITAKQYVQSGDYHNILVVGADKLSKITDLTDRSTAVLFGDGAGAVIIGEVSEGRGIISYEMGSDGTGGKHLYLDKDTGKLKMNGREVFKFAVRIMGDASTRVVEKANLTSDDIDLFIPHQANIRIMESARERLGISKDKMSVSVNKYGNTSAASIPLSIDQELKNGKLKDDDTIVLVGFGGGLTWGAMTIKWGK | soluble |
| MNVRITKKMVRELLEVLDEIVEEIRQEEKEKYPYAEWERKREIVKERLRKLPKYVREAVSAIRIEKRVGRPKKVDLEKRVMLFLFARLINKSNRDVEELLELFEPLFGIRVSYKTIERLYSDEEVRMALHNLFILLLKDEGVSGEFSGDGTGYSLAITKHYRSNPKKKGKDFRYVFRIIDLETGMYVGFGYSAKSEKDAFEKAMKMLKSMGVKVNSISLDKYYSTRKTLRMFDAETSVYVIPKRNLSRIGFDWLRVIERIVEMPYRFLKRYFKRNLSEAGFSADKRRFGWLIRQRREDRREMALFAVGLWHNIFAVRVMR | not soluble |
| MNVTEITQLARDIRVATLKSLNHLGFGHYGGSMSVVETLAVLYGAVMKIDPADPDWPERDYFVLSKGHAGPALYSTLAIKGYFPREELNTLNQNGTRLPSHPDRLKTRGVDATTGSLGQGISIAGGMALSHKLARRPNRVFCIVGDGELNEGQCWEAFQFIAHHRLNNLTVFIDWNKQQLDGELEEIINPFDLEGKFRAFGFDVVTVKGDDIAGLLAVVQPVPPADAQPRVVILDSIKGQGVPCLEQLTNSHHLRLTDGMKQTLNEAIHQLEVMHD | not soluble |
| MNVVQVEYLNVAEIKALLNSTISKLNPRYTSNYMIVTAILTGARLSEIAGLTWNDINFNFNTININKSYDYFAKSFKPTKNKSSNRIIKINNTLCDVLKELRTNNTDLVFKNKRGLIPTSNAVNKALRARLEELNINRRNFHFHSLRHSHVAFLLSQGIDIYPIAQRLGHSDITTTTRTYAYLIEEYKDKNDAIIIAGLDKLEHHHHHH | not soluble |
| MNVWSKLLTALRGGANEAGEALVDSQALRILDQEIRDADQELRKSKEALAEIMARQKLAAERANGSAAKIAEYESYALKALEAGNEALAQEVAQKIANLENDLAVEREQADGFAASVAQLRKAVTQAEGNIKHLKQQVDTVKATESVQKAQQAVAQRYGGSQSKLHTAVESLERIKQKQAERAAKMDAAAELANTSSPDDALDAKLREAGIVAGSTSADSVLARLKDRSKSLEHHHHHH | not soluble |
| MNWRAASAPPRSSPGLTSTCSRAAHWRDRGGAAAHAVLANVPQGRTLRDDAADLGWKPNHKFKGKLILTAPDAMPVDLNGVTITIAGPLQDELQALQDMHDQWLRQRKADPTRPPASAMLAAFVDKSVPNLSSIVLLAECGGKTMLLTGDARGDKIIEGLETTGKLAKDETLHVDILKVPHHGSDNNMETSFFERVTADHYVFSGNGDYGNPERATLQMLLDARGVAEDFTIHLTYPIEEIDAGREADWVKQQAKEAGRAKPPKGGVRPDWSAEEQGLVAFFANNPELAAHLIDLLDKAVVLEHHHHHH | not soluble |
| MNYEIVCGIETHIELATKTKIFCGCTTEFGGEPNTHCCPVCTGQPGSLPILNQKVVEYAIKAGLALNCKINTKSHMDRKNYVYPDLPKAYQISQYDEPLCEKGYIELDSGKRIGITRIHIEEDAGKLVHENGYTYIDYNRSGVPLIEIVSEPDISSAEEAREYAEKLQLIMRYIGISDCKMQEGSMRCDVNLSLRKPGDSRFGVRTEIKNINSLSFIQKAVMAEAERQADILDAGGTVVQQTMRYDEATNSVSPMRDKENSDDYRYFPDPDILRFSINDEKVEEIRASLPELPFDKLKRYVNVLGLPEATARQIFRYRKVAEFFEGALAEGASVKNAANLIVGTIFSNMDTEEEKELFDIRISSAQFAALVKLADEKKINIGVAQSTLQKMLESGKPVEEFIKPEDLAGISDEELESLCKEAIDANPKAVADVRSGKDKAINVMFGYIMKKTGGKADIRKVEVLLRKLIGQ | soluble |
| MNYGFVKVAAAVPRVKVADCKFNSERLEGLITIAEGKGVQILTFPEMCITGYTCGDLFAQQLLLEQAEMALIQILNSTRQLDIISILGMPVVVNSTVINAAVVIQKGKILGVVPKTYLPNYKEFYEQRWFTSALQVSENSVRLCGQIVPMGNNLLFETAETTFGIEICEDLWATVPPSSSLALQGAEIIFNLSADDEGIGKHNYLCSLISQQSARCISGYVFSSSGFGESTTDVVFAGNGLIYENGYLLARSERFCMEEQLIINEIDVECIRAERRVNTTFAANKANCPGKEAVRISTEFVNSKDLNLTRTFNPHPFVPQGNELNSRCEEIFSIQIAGLAQRLLHTGAKTAVIGISGGLDSTLALLVCVKTFDKLGLSRKDILGITMPGFGTTDRTYHNAIDLMNSLGVSIREISIREACIQHFKDIGHDLNIHDVTYENSQARERTQILMDIANQTWGMVIGTGDLSELALGWATYNGDHMSMYGVNAGIPKTLVKHLVQWVAENGMDETSKATLLDIVDTPISPELIPADELEHHHHHH | soluble |
| MNYQDVLDFWFAPDHTNFWFAKDSLFDDEIRTQFSTVHQQATQAELWSWRQTVEGRLAEIIVLDQFSRNLYRDQAQAFAQDSMALALAQEAITQQLDAQLSPEQRSFLYMPFMHSESKLIHEFALKLFQKLGNEINLSFEKKHKVIIDQFGRYPHRNAILGRQSTPEELEFLTQPNSHF | not soluble |
| MNYSRIAEAIEYIRAHYKEQPGLDEVAEKVHLSPFHFQRIFTEWAGLEHHHHHH | not soluble |
| MPAAAPGKNFDLSHWKLQLPDANTTEISSANLGLGYTSQYFYTDTDGAMTFWAPTTGGTTANSSYPRSELREMLDPSNSKVNWGWQGTHTMKLSGKTVQLPSSGKIIVAQIHGIMDDGTNAPPLVKAVFQDGQLDMQVKQNSDGTGSDVHNYFTGIKLGDLYNMEIRVTDGVAYVTMNGDTRSVDFVGKDAGWKNLKYYFKAGNYVQDNTSTGGSAIAKLYSLSVSHSNLEHHHHHH | soluble |
| MPAALLISGPCKICDLPAHGNHFGVLSCRACAAFFRRASRSPRFQDKACEYGDCRIFDAGAYRCKICRLKKCYKVGMDASKFQKDRDLISSSNAYLKRTKVYAPQSLANFLGRPEFIISFEPEKASPFKTVIDVTDLVHKAAEIFQEDLANSPMPYKYSNSLEKLTLEMEDLRLRSSNHKVKIVRNIGKAESLVFFEQMFLATANWYARLPDFTSLDLRVKLEILKSTWMLWIRLNKLAETAQNQRIKEMGANIFMCSENTCLNVQDINVDWSWCTNYGAEQMQAFLMPNIDKHWRQPVEDLVKLNPTDMELNFMLIQLCLNDAGKKFQGRVLEATDKLLQINADNLHNYYTKKLNMPSYSGRLTKLMKINQIVEEDVRERKEKAKIVEVFDLFSIVYSHPEMFEGT | not soluble |
| MPAEPQKSTEAGSVAPEKKLKACCACPETKRVRDACIIENGEEKCGKLIEAHKACMRAAGFNI | soluble |
| MPAKDVQICPIAVDTTVFRSRTWDRLKFEIEYGLQRGTTANSYLISADKIALFDPPGESFTDNFVGTLIQRLDLNSLDYVILGHVNANRAHTLKLLLSLAPQATIICSNPAAQNLEKLLADAEVNNPIQVMKGNDHLDLGRGHELTFIPTPSPRYPGQLCTYDPRTEILFTDKLFGAHVCGDQVFDEGWTIYQEDRRYYFDCLLAPAAAQVSAALNKLEAYPAQTYAPSHGPLVRYGLRELTRNYQQWLEHHHHHH | soluble |
| MPAKERFFGFHPCKLVEQVEDCVRDLLEDALDGLETSLFRECALAFDALQENAVTSEHEHAKRLLLQQGLMRLRDALFTAFYDQMDRLQVYLLRNVFHIPPGLRIPNVNTSEDLVENWEQALGIDPSSVQIDANAEDEHAVDQELVALRQSLRVARQRLQRLCRERSVLEGAFHRLEGALQSRLASTLIPTEPEDPSGDCDALAKQVVTIARAVSELEAVVRSCRDQFLGDRSSAASGGAPPSGTVPAAAGGSDVGAQGALVRPPLELERIFDAHTKATRVDSLDAVDALRRALHRSC | not soluble |
| MPAKTGQEYMERLKRAKSSVYIHGEKVEDVTVHPAFRNVVRSMAALYDRQYEKPEKMLYRSPTTGQLVGMTFIQPTTIDELIARREATQEWARMSAGMMGRSPDYLNAEVMAMGVANDLFAEDDPMFAENAKNYYEYARENDISLTHTLIHPQMNRAKALHEQNDADVPLHLVERRKDGIIVSGIRLLATQGGITDEILVFPSTVKKSTAGEDPYALAFAIPNNTPGVKFICREAFDYGRSSWDHPLASRFEEGDAIVSFENVFVPWERVFVCGNSSICNRTFRETNAVIHMSHQVVAKNIVKTEFLLGVTLCLIEAIGIGEFQHVKDKGAEIMLVLETMKSHLYRAEHNAKRDRWGTMTPDFAALDAARNWYPRIYPRLSEIIRILGASGLMAIPTEADFHNEEIGEIVSRAMQGATVDGYERVQLFRLAWDLTMSAFGARQTHYEYYFFGDPVRMGMAYFDGYEKEPYKQFVREFLRGAKSVFIPSDNKH | not soluble |
